Measured values from the supplement of paper PMC10724198.
± gives the standard deviation of the averaged measurements.

Tests used:
[1] = test system: Saccharomyces cerevisiae; assay: protein stability index of tFT-peptide fusion (C-terminal peptide) (PSI (0-1 scale)); higher = more stable (slower turnover); details: genetic background: wild type; temperature: 30 C
[2] = test system: Saccharomyces cerevisiae; assay: as above
Experimental: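 MPS profiling in S. cerevisiae of the tFT-X12 degron library: putative degron peptides plus stable controls, 12 aa, fused to the C-terminus of a sfGFP-mCherry timer. Cells are FACS-sorted into 8 mCherry/sfGFP bins and deep-sequenced. PSI runs from 0 (unstable) to 1 (stable). Backgrounds are wild type, das1Δ and doa10Δ at 30 °C, and wild type, das1Δ, cdc34-1 and cdc53-1 at 37 °C; 2-3 technical replicates each.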

[3] = genetic background: cdc34-1, temperature: 37 C
[4] = genetic background: cdc53-1, temperature: 37 C
[5] = genetic background: das1 deletion, temperature: 30 C
[6] = genetic background: das1 deletion, temperature: 37 C
[7] = genetic background: doa10 deletion, temperature: 30 C
[8] = genetic background: wild type, temperature: 30 C
[9] = genetic background: wild type, temperature: 37 C
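Note: PSI is a weighted mean of sequencing reads over stability bins, variants kept only with over 10 reads, mCherry proximal and sfGFP distal, peptide attached via GGGS linker.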

Row | Sequence | protein stability index [1] | protein stability index [2, 3] | protein stability index [2, 4] | protein stability index [2, 5] | protein stability index [2, 6] | protein stability index [2, 7] | protein stability index [2, 8] | protein stability index [2, 9]
1 | PTYTKYRTRQIN | 0.0994 ± 0.044 | 0.528 ± 0.066 | 0.745 ± 0.025 | 0.62 ± 0.011 | 0.7536 ± 0.0066 | 0.0947 ± 0.015 | 0.133 ± 0.04 | 0.156 ± 0.024
2 | YVSIWSPILWLA | 0.117 ± 0.024 | 0.1694 ± 0.0014 | 0.262 ± 0.012 | 0.293 ± 0.028 | 0.453 ± 0.0083 | 0.0697 ± 0.007 | 0.0628 ± 0.017 | 0.0657 ± 0.016
3 | YIFLLRFFFFFS | 0.358 ± 0.028 | 0.367 ± 0.014 | 0.435 ± 0.0084 | 0.333 ± 0.042 | 0.515 ± 0.03 | 0.299 ± 0.011 | 0.304 ± 0.044 | 0.435 ± 0.022
4 | AYACSILRCKSS | 0.34 ± 0.086 | 0.624 ± 0.015 | 0.727 ± 0.013 | 0.636 ± 0.012 | 0.713 ± 0.026 | 0.186 ± 0.016 | 0.219 ± 0.052 | 0.422 ± 0.04
5 | NDKGKKTKIKIV | 0.254 ± 0.058 | 0.659 ± 0.025 | 0.72 ± 0.057 | 0.64 ± 0.067 | 0.7368 ± 0.0053 | 0.187 ± 0.011 | 0.185 ± 0.024 | 0.343 ± 0.029
6 | SFVGCWFVLLVR | 0.179 ± 0.036 | 0.0307 ± 0.0085 | 0.0395 ± 0.0077 | 0.138 ± 0.024 | 0.235 ± 0.003 | 0.193 ± 0.0003 | 0.122 ± 0.025 | 0.159 ± 0.0049
7 | GRLVPVILLKLV | 0.099045 ± 4e-05 | 0.3011 ± 0.0019 | 0.471 ± 0.015 | 0.441 ± 0.031 | 0.5625 ± 0.00087 | 0.0719 ± 0.018 | 0.0651 ± 0.015 | 0.0817 ± 0.0024
8 | LSVYFSLSLCVS | 0.448 ± 0.02 | 0.363 ± 0.014 | 0.451 ± 0.0063 | 0.384 ± 0.025 | 0.462 ± 0.011 | 0.392 ± 0.0084 | 0.399 ± 0.017 | 0.429 ± 0.017
9 | FFVFSFVLFFPL | 0.369 ± 0.049 | 0.347 ± 0.0076 | 0.427 ± 0.054 | 0.305 ± 0.046 | 0.456 ± 0.025 | 0.307 ± 0.006 | 0.322 ± 0.029 | 0.444 ± 0.022
10 | PLPSRAPVQFLL | 0.319 ± 0.021 | 0.624 ± 0.012 | 0.754 ± 0.017 | 0.643 ± 0.029 | 0.727 ± 0.0097 | 0.1719 ± 0.0011 | 0.199 ± 0.019 | 0.3725 ± 0.00074
11 | VAIMSIWLVYML | 0.454 ± 0.0058 | 0.349 ± 0.0086 | 0.465 ± 0.0057 | 0.341 ± 0.031 | 0.497 ± 0.016 | 0.331 ± 0.0076 | 0.333 ± 0.0079 | 0.4919 ± 0.0028
12 | MFTIYISFVFAF | 0.269 ± 0.039 | 0.197 ± 0.0067 | 0.277 ± 0.0087 | 0.195 ± 0.029 | 0.3305 ± 0.00089 | 0.179 ± 0.017 | 0.214 ± 0.0098 | 0.2844 ± 0.0023
13 | RCSLRLRFIFVR | 0.166 ± 0.0029 | 0.0761 ± 0.024 | 0.0507 ± 0.018 | 0.128 ± 0.019 | 0.159 ± 0.0038 | 0.254 ± 0.024 | 0.104 ± 0.022 | 0.116 ± 0.0027
14 | WALVLLVPVWFD | 0.471 ± 0.027 | 0.442 ± 0.031 | 0.553 ± 0.06 | 0.383 ± 0.032 | 0.567 ± 0.011 | 0.396 ± 0.055 | 0.402 ± 0.014 | 0.533 ± 0.0073
15 | VFGFLVFYVCVR | 0.268 ± 0.0095 | 0.0903 ± 0.036 | 0.146 ± 0.021 | 0.153 ± 0.047 | 0.282 ± 0.014 | 0.135 ± 0.027 | 0.151 ± 0.026 | 0.248 ± 0.026
